Values of other authors in article PMC2409454.

Target: pRb (Homo sapiens) (UniProt P06400)
Chain of UniProt P06400 (P06400 2-928): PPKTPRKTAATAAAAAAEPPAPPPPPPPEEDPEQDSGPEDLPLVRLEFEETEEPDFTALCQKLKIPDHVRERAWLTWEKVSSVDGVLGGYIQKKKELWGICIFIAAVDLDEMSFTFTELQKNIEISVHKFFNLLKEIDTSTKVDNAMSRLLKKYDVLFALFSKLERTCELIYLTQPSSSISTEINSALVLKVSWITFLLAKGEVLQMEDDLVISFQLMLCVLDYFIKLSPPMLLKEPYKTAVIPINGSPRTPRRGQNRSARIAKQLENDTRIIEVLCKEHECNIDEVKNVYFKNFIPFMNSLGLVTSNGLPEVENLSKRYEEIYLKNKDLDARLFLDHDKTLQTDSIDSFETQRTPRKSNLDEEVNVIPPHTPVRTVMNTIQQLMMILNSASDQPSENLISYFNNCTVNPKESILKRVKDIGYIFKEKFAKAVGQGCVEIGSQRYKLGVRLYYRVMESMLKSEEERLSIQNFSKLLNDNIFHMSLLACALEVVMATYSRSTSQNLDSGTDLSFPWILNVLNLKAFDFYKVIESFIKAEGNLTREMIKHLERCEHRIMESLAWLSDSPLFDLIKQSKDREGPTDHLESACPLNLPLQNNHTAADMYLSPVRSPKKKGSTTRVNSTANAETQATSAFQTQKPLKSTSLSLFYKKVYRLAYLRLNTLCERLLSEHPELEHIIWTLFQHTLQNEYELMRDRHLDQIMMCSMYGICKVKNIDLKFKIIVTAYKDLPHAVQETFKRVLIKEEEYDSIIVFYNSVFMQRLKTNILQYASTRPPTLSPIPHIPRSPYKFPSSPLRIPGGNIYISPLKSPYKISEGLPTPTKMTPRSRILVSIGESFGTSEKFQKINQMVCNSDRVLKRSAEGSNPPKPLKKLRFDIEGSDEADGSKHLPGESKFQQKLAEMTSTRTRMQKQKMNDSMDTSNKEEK

E7 (from UniProt P03129)
Kd: 4.5 nM
